Values quoted from earlier work, collected in paper PMC11209772.
Several values for one entry are separate records, joined by “and”; a condition that tells them apart may be missing. Equal entries are not always repeated. Where two headings read alike, the source gives them in different places. Each block holds one substance with its values, some of them ahead of it.

What was measured:
[1] = molecular target: SSB-Ct peptide (Escherichia coli) (UniProt P0AGE0); assay: FP
[2] = molecular target: SSB-Ct peptide SSB-Ct (Escherichia coli) (UniProt P0AGE0)
[3] = molecular target: SSB C-terminal peptide C-terminal 15 residues (Escherichia coli) (UniProt P0AGE0); assay: SPR
SSB (Escherichia coli) [4] = molecular target: SSB (Escherichia coli) (UniProt P0AGE0)
SSB (Escherichia coli) [5] = molecular target: SSB (Escherichia coli) (UniProt P0AGE0); assay: ITC
SSB (Escherichia coli) [6] = molecular target: SSB (Escherichia coli) (UniProt P0AGE0); assay: SPR
SSB (Escherichia coli) [7] = molecular target: SSB (Escherichia coli) (UniProt P0AGE0); assay: FP
[8] = molecular target: SSB-Ct peptide SSB-Ct (Escherichia coli) (UniProt P0AGE0); assay: FP
[9] = molecular target: SSB-Ct peptide SSB-Ct (Escherichia coli) (UniProt P0AGE0); assay: ITC

Substance: DNA polymerase III subunit chi (from UniProt P28905)
- Kd (SSB (Escherichia coli) [4]): 330 nM

Substance: ExoI (from UniProt P04995)
- Kd [1]: 136 nM

Substance: DNA polymerase IV (from UniProt Q47155)
- Kd (SSB (Escherichia coli) [7]): 2000 nM

Substance: RNase HI (from UniProt P0A7Y4)
- Kd (SSB (Escherichia coli) [5]): 2000 nM

Substance: RecO (from UniProt P0A7H3)
- Kd [8]: 60 nM

Substance: UDG (from UniProt P12295)
- Kd (SSB (Escherichia coli) [6]): 170 nM

Next, values leading:

- Kd [1]: 5400 nM
- Kd [2]: 5400 nM
Substance: RadD (from UniProt P33919)

- Kd [3]: 2400 nM
Substance: PriA (from UniProt P17888)

- Kd (SSB (Escherichia coli) [5]): 6000 nM
Substance: RecQ (from UniProt P15043)

- Kd (SSB (Escherichia coli) [6]): 2700 nM
Substance: Pol III χψ (from UniProt P28905)

- Kd (SSB (Escherichia coli) [6]): 360 nM
Substance: RarA (from UniProt P0AAZ4)

- Kd [9]: 670 nM and 3700 nM
Substance: PriC (from UniProt P23862)
